Our source for the Kd values is publication PMC8246079 (Chemical Science, 2021).

Where two headings read alike, the source gives them in different places. Non-standard residues stand in square brackets, D forms with d. No end group written: not given here. Lys(Me3) = C[N+](C)(C)CCCC[C@H](N)C(=O)O

Experiment in all cases: ITC
The target of experiment [1] is TAF3 PHD domain M900Q/M907Q (the paper's wild-type construct) (UniProt Q5VWG9).
Experiment [2] concerns the target TAF3 PHD domain M900Q/M907Q with selenomethionine in place of M882 (SeMet mutant) (UniProt Q5VWG9).
The target in experiment [3] is TAF3 PHD domain M900Q/M907Q with norleucine in place of M882 (Nle mutant) (UniProt Q5VWG9).
The target in experiment [4] is DIDO1 (death inducer obliterator 1) PHD domain, wild type.
For experiment [5], the target named is BPTF PHD domain Y23M.
Experiment [6] addresses TAF3 PHD domain M900Q/M907Q (the paper's wild-type construct) (UniProt Q5VWG9). The source holds these as a separate data set.
Experiment [7] has as its target TAF3 PHD domain M882A (UniProt Q5VWG9).
Experiment [8] concerns the target TAF3 PHD domain M900Q/M907Q with selenomethionine in place of M882 (SeMet mutant) (UniProt Q5VWG9). This is another data set of the same source.
For experiment [9], the target named is DIDO1 PHD domain with selenomethionine in place of methionine (SeMet mutant) (UniProt Q9BTC0).
Experiment [10] has as its target TAF3 PHD domain M900Q/M907Q with norleucine in place of M882 (Nle mutant) (UniProt Q5VWG9). The source holds these as a separate data set.
Experiment [11] has as its target BPTF PHD domain Y23M. The source holds these as a separate data set.
For experiment [12], the target named is DIDO1 PHD domain M35C (UniProt Q9BTC0).
The target of experiment [13] is T1, DIDO1 (death inducer obliterator 1) PHD domain, wild type (UniProt Q9BTC0 266-325).
T1 sequence: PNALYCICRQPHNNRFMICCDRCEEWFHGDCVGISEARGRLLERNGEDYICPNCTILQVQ

The Kd is the equilibrium constant for the complex coming apart. Read a low Kd as higher affinity. Regarding “histone H3 tail peptide with tert-butyl norleucine in place of K4me3 (H3K4tBuNle), ARTX… with X = tBuNle”, the Kd in experiment [1] turned out to be 10.7 µM; in experiment [2], 8.3 µM; in experiment [3], 13.7 µM.
On to “Histone H3 peptide with tert-butyl norleucine in place of K4 (H3K4tBuNle 1-13, with a C-terminal Tyr)”, for which the Kd in [4] stood at 2.9 µM; in experiment [5] it was 7.48 µM.

B1: histone H3 tail peptide trimethylated at K4 (H3K4me3), ARTX… with X = Kme3 (peptide)
peptide: ART[Lys(Me3)]QTARKSTGGY
For the molecule B1, the Kd in [6] is 1.05 µM; in experiment [7] it was 120 µM; in [8], 0.84 µM; in [9], 4.2 µM; in experiment [10], 1.7 µM; in [11], 7.5 µM. Besides, the Kd in experiment [12] came to 36 µM.

B2: histone H3 tail peptide trimethylated at K4 (H3K4me3), ARTXQTARKSTGGY with X = Kme3 (peptide)
peptide: ART[Lys(Me3)]QTARKSTGGY
In experiment [13], B2 yielded a Kd of 2.28 µM.
